Source: a protein production outcome set (Wang et al. 2014)

Test: label from the status in PepcDB records

Row | Sequence | protein production
1 | MSLTESARIDGVSLYEIVIPMKIPFQISSGTCYTRRSLVVEIREGDLFGYGESAPFEEPFYLGETLETTKVILKNHLLPMILGKEPLSIEEFNHLIKNGIRGNHFARCGVENAYWDLIAKKNKISLKAMIEKKMKNLGVKQEYLASNNYIESGAALGIPEDGRIETLIHQVEESLQEGYRRIKIKIKPGWDVEPLQETRRAVGDHFPLWTDANSSFELDQWETFKAMDAAKCLFHEQPLHYEALLDLKELGERIETPICLDESLISSRVAEFVAKLGISNIWNIKIQRVGGLLEAIKIYKIATDNGIKLWGGTMPESGLGARFLISLASFRGFVFPADVAASEKWYGKGNDLVENTMTDGKIYVPDEPGASFDMTLSHLEALGKKIWESQRGEGHHHHHH | not failed
2 | MSLTGFWHDDFNNATPNDICVAIRSEAADAGIAQAIMQQLEEALKQLAQGSGSSQALTQVRRWDSACQKLPDANLALISVAGEYAAELANQALDRNLNVMMFSDNVTLEDEIQLKTRAREKGLLVMGPDCGTSMIAGTPLAFANVMPEGNIGVIGASGTGIQELCSQIALAGEGITHAIGLGGRDLSREVGGISALTALEMLSADEKSEVLAFVSKPPAEAVRLKIVNAMKATGKPTVALFLGYTPAVARDENVWFASSLDEAARLACLLSRVTARRNAIAPVSSGFICGLYTGGTLAAEAAGLLAGHLGVEADDTHQHGMMLDADSHQIIDLGDDFYTVGRPHPMIDPTLRNQLIADLGAKPQVRVLLLDVVIGFGATADPAASLVSAWQKACAARLDNQPLYAIATVTGTERDPQCRSQQIATLEDAGIAVVSSLPEATLLAAALIHPLSPAAQQHTPSLLENVAVINIGLRSFALELQSASKPVVHYQWSPVAGGNKKLARLLERLQGHPHHH | not failed
3 | MSLTKLYYEDQYIKEFKGEIIEVKEIDGKFHVLLDQTAFFPGGGGQMGDLGLIDGIKVLDVYEEEGKVYHVLEKEPKKLKNLQCELDWERRFDGMQQHLGQHLLSGCFYDLFGANTCGFHLGKEISTVDIVGFLDEKTIREAEKEANRLIFENLEVKSYAPSKKELKKVKTRRALPKTDEEIRIVEIVGLDLNACCGVHPRNTRDLQVIKIRRWEKHKNATRIEYVAGNRAVSEGHHHHHH | not failed
4 | MSLTLRVVPELYCFDINVSQSFFVDVLGFEVKYERPDEEFVYLTLDGVDVMLEGIAGKSRKWLSGDLEFPLGSGVNFQWDVIDIEPLYQRVNESAADSIYLALESKSYQCGDSIATQKQFMVQTPDGYLFRFCQDIHEGHHHHHH | not failed
5 | MSLTPTVMVVDESRITFLAVKNALEKDGFNVIWAKNEQEAFTFLRREKIDLVFVDVFEGEESLNLIRRIREEFPDTKVAVLSAYVDKDLIINSVKAGAVDYILKPFRLDYLLERVKKIISSTPRVTVSLRKNIEEGHHHHHH | not failed
6 | MSLTPYEPFRHLDQMRREFDRFFPDFPIDLPNRHLTLSPKMDVHETDHEVILECDIPGLESKEDLQIDVEPRSVRIEGRIKRSKEVHDERFYRREREIGHFRRVVPLPAEVAEDDIRAAYRNGVLEVRMRKRLDDRRRTIDVEFHLEHHHHHH | not failed
7 | MSLTRTQPVELVTMVMVTDPETQRVLVEDKVNVPWKAGHSFPGGHVEVGEPCATAAIREVFEETGLRLSGVTFCGTCEWFDDDRQHRKLGLLYRASNFTGTLKASAEGQLSWLPITALTRENSAASLPEFLQVFTGTASTLVSDSWNGNLRIDEGHHHHHH | not failed
8 | MSLTTMLEVAKRAGVSKATVSRVLSGNGYVSQETKDRVFQAVEESGYRPNLLARNLSAKSTQTLGLVVTNTLYHGIYFSELLFHAARMAEEKGRQLLLADGKHSAEEERQAIQYLLDLRCDAIMIYPRFLSVDEIDDIIDAHSQPIMVLNRRLRKNSSHSVWCDHKQTSFNAVAELINAGHQEIAFLTGSMDSPTSIERLAGYKDALAQHGIALNEKLIANGKWTPASGAEGVEMLLERGAKFSALVASNDDMAIGAMKALHERGVAVPEQVSVIGFDDIAIAPYTVPALSSVKIPVTEMIQEIIGRLIFMLDGGDFSPPKTFSGKLIRRDSLIAPSREGHHHHHH | not failed
